# Biological target: plasminogen
# Assay: cell-based or functional assay
substance,measurement,value
phage-displayed recombinant K2S (K2S-gp3 fusion protein on VCSM13 filamentous phage) (from UniProt P00750 209-562),fibrinogen-dependent enzymatic activity (amidolytic assay with plasminogen and S-2251),< 0.25 IU/ml

# Reference: patent EP1407030B1
